According to patent US20230242577A1 (UBIPROTEIN, published 2023):

B1: pCMV3-C-myc-VEGFA WT (ligand)
chain: APMAEGGGQNHHEVVKFMDVYQRSYCHPIETLVDIFQEYPDEIEYIFKPSCVPLMRCGGCCNDEGLECVPTEESNITMQIMRIKPHQGQHIGEMSFLQHNKCECRPKKDRARQEKKSVRGKGKGQKRKRKKSRPCGPCSERRKHLFVQDPQTCKCSCKNTDSRCKARQLELNERTCRCDKPRR
notes: also called vascular endothelial growth factor A; human VEGFA; not shown: myc tag of the pCMV3-C-myc vector
B2: pcDNA3-myc-interferon-β WT (ligand)
chain: MSYNLLGFLQRSSNFQCQKLLWQLNGRLEYCLKDRMNFDIPEEIKQLQQFQKEDAALTIYEMLQNIFAIFRQDSSSTGWNETIVENLLANVYHQINHLKTVLEEKLEKEDFTRGKLMSSLHLKRYYGRILHYLKAKEYSHCAWTIVRVEILRNFYFINRLTGYLRN
notes: also called IFN-β; human interferon-β; not shown: myc tag of the pcDNA3-myc vector
B3: pcDNA3-myc-GLP-1 WT (ligand)
chain: HAEGTFTSDVSSYLEGQAAKEFIAWLVKGRG
notes: also called glucagon-like peptide-1; human GLP-1; not shown: myc tag of the pcDNA3-myc vector
B4: pCMV3-C-myc-prepro-GHRL WT (ligand)
chain: GSSFLSPEHQRVQQRKESKKPPAKLQPRALAGWLRPEDGGQAEGAEDEMEVRFNAPFDVGIKLSGVQYQQHSQALGKFLQDILWEEAKEAPADK
notes: also called Ghrelin/obestatin preprohormone; appetite stimulating hormone precursor; not shown: myc tag of the pCMV3-C-myc vector
B5: pcDNA3-myc-G-CSF WT (ligand)
chain: TPLGPASSLPQSFLLKCLEQVRKIQGDGAALQEKLVSECATYKLCHPEELVLLGHSLGIPWAPLSSCPSQALQLAGCLSQLHSGLFLYQGLLQALEGISPELGPTLDTLQLDVADFATTIWQQMEELGMAPALQPTQGAMPAFASAFQRRAGGVLVASHLQSFLEVSYRVLRHLAQP
notes: also called human G-CSF; not shown: myc tag of the pcDNA3-myc vector
B6: pcDNA3-myc-β-trophin WT (ligand)
chain: APMGGPELAQHEELTLLFHGTLQLGQALNGVYRTTEGRLTKARNSLGLYGRTIELLGQEVSRGRDAAQELRASLLETQMEEDILQLQAEATAEVLGEVAQAQKVLRDSVQRLEVQLRSAWLGPAYREFEVLKAHADKQSHILWALTGHVQRQRREMVAQQHRLRQIQERLHTAALPA
notes: also called human β-trophin; not shown: myc tag of the pcDNA3-myc vector

The binders below were run against T1, HA-ubiquitin (from pMT123-HA-ubiquitin) (UniProt P0CG47 1-76) (assay: anti-myc IP, anti-HA blot, HEK 293T co-transfected with HA-ubiquitin (ubiquitination)).
T1 construct: one ubiquitin unit is residues 1-76; not shown: HA tag of pMT123-HA-ubiquitin
B1: binds. B2: binds. B3: binds. B4: binds. B5: binds. B6: binds.
